Results published in article PMC11519390.

B1: HA-tagged wildtype Drosophila CYRI [Drosophila] / GST-tagged constitutively active Rac1 [Drosophila] (parent)
chain 1: MGKLLSLLSRDDSNCCAAKSYDVFLDFENAAPTETERAVYDEVERVLRESEVVLDEIQIYRGAGKEIREAIADPSPEVTAKAWAAVLPLVNKLKRCYEHSMELDKIVPKLLGQLVGGKLNPTQHLETQQALVKQLAEILEFVLKFDEYKMKTPAIQNDFSYYRRIVSRQRVDSTENMLVSTELANRMSLFYAHATPMLKVLSEATSKFVNDNADDVQNTTETLGTMAKVCLRMLENPKLLQQIEREDTKMLVLRVMVGLVILYDHVHPEGAFVRGAHVDVKGCVRLLQAQPAIKAEPLLNALRYTTKHLNGENTPKNIQRLLAA
chain 2: not shown

Variants of: B1
Experiment: GST pull-down, western blot quantification
Settings: with GST-tagged constitutively active Rac1 Q61L [Drosophila]; Signals normalized to loaded input (1% of the starting lysate material); three independent experiments; read off a plot

| response (% bound input) | Variant |
| --- | --- |
| 0.015 | chain 1 R163D R164D |
